Assay results from doi:10.1101/2022.12.08.519103 (bioRxiv, 2022).
One block for each binder: values may come before it. Square brackets hold non-standard residues; d marks the D form. Ends that are not written are not given here. pS = N[C@@H](COP(=O)(O)O)C(=O)O

Experiments:
Test in all cases: Holdup Multiplex
[1] = molecular target: T1, AviTag-His6-MBP-TEVsite-14-3-3ε (human, UniProt P62258 1-255)
T1 sequence (looked up): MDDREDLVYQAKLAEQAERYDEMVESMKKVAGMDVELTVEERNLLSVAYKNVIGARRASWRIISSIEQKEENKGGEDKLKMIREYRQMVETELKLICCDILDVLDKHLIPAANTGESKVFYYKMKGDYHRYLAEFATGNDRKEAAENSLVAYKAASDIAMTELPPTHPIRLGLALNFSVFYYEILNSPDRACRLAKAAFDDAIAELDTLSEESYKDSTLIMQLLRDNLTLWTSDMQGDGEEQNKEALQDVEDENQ

[2] = molecular target: T2, AviTag-His6-MBP-TEVsite-14-3-3σ (human, UniProt P31947 1-248)
T2 sequence (looked up): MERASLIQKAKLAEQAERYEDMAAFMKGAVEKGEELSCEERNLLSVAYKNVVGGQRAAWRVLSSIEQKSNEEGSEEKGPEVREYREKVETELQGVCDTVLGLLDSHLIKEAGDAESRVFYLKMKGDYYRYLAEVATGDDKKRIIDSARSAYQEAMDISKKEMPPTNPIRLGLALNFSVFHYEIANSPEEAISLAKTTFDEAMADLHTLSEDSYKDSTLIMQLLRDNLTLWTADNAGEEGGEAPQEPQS

[3] = molecular target: T3, AviTag-His6-MBP-TEVsite-14-3-3γ (human, UniProt P61981 1-247)
T3 sequence (looked up): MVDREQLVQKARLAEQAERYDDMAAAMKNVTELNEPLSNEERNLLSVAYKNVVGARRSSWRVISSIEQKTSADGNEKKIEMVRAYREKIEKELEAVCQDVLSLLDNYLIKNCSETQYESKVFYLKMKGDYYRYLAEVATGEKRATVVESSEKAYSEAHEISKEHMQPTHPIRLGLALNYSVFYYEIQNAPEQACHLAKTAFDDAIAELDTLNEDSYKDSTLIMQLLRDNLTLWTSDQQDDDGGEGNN

Kd [1]: ~900 µM
Binder: GARPV[pS]VAGS (peptide, UniProt Q9Y4H2 379-388, looked up, also: phosphoserine at 384 (S6 or S10)) [IRS2 pSer384 phosphopeptide]

Kd ratio between γ and σ [2]: 60 fold
Binder: LRRPH[pS]VIGG (peptide, UniProt Q00537 70-79, looked up) [phosphopeptide centered on pSer75 from CDK17]

Kd [3]: 0.7 µM
Binder: QRISQ[pS]APVK (peptide, UniProt P46937 271-280, looked up, also: phosphoserine at 276 (S4 or S6)) [YAP1 pSer276 phosphopeptide]
